{"source": "paper doi:10.1101/2020.06.17.153486", "about": "(bioRxiv, 2020)", "molecular_target": "SARS-CoV-2 spike trimer (S trimer), soluble ectodomain (SARS-CoV-2, Wuhan-Hu-1 type, stabilised)", "assay": "cryo-EM structure", "data": [{"binder": "2-4 Fab (Fab, V domains shown) VH: QVQLVQSGAEVKKPGASVKVSCKASGYTFTGYYMHWVRQAPGQGLEWMGWINPNSGGTNYTQMFQGRVTMTRDTSISTAYMEVSRLRSDDTAVYYCARDRSWAVVYYYMDVWGKGTTVTVSS VL: QSALTQPPSASGSPGQSVTISCTGTSSDVGGYNYVSWYQQHPGKAPKLMIYEVSKRPSGVPDRFSGSKSGNTASLTVSGLQAEDEADYYCSSYAGSNNLVFGGGTKLTVL", "values": [{"measurement": "stoichiometry N", "value": 3, "unit": "Fab per trimer"}]}]}
